Assay results: patent US20180127513A1 (Bristol-Myers Squibb, published 2018)
Numbering of substitutions follows the chain as printed. Names may count otherwise. Blank lines part the entries; values can stand above or below the binder they belong to.

Experiments:
human CD73 on cells [1] = target: T1, human CD73 on cells (human, UniProt P21589 27-549); assay: cell-based or functional assay
T1 sequence: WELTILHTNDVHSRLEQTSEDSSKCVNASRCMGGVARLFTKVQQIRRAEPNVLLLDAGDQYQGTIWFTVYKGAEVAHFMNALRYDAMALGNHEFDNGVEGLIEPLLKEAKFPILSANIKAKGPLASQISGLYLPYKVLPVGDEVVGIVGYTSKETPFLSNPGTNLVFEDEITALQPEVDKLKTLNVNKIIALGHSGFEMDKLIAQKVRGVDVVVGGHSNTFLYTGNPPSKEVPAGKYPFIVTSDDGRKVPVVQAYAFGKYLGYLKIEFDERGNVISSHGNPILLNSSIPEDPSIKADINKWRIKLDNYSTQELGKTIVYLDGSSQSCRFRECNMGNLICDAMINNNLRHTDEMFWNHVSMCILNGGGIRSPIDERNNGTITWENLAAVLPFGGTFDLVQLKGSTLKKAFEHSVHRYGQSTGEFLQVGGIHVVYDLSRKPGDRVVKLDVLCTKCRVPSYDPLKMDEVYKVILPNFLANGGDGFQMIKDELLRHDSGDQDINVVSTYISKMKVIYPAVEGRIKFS

human CD73 on cells [2] = target: T1, human CD73 on cells; assay: cell-based or functional assay; remark: listed apart in the source
N-hCD73-his = target: T2, N-hCD73-his (human, UniProt P21589 26-336); assay: SPR
T2 construct: also called hCD73(26-336)His; CD73(26-336)His; not shown: His tag
T2 sequence: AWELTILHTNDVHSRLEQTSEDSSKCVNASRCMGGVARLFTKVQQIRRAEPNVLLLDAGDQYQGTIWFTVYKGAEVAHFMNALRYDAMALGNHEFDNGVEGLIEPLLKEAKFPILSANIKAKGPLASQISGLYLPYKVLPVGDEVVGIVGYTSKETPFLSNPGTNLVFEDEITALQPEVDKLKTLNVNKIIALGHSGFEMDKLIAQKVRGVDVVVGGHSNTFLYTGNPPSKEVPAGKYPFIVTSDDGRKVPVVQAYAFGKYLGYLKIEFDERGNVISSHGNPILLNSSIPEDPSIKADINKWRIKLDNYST
Description: One experimental format tested the binding of the N-terminal domain of hCD73 (consisting of residues 26-336 of human CD73; termed N-hCD73) to antibodies that were captured on immobilized protein A surfaces. For these experiments, protein A (Pierce) was immobilized to a density of 3000-4000 RU on flow cells 1-4 of a CM5 sensor chip (GE Healthcare) using standard ethyl(dimethylaminopropyl) carbodiimide (EDC)/N-hydroxysuccinimide (NHS) chemistry, with ethanolamine blocking, in a running buffer of 0.01 M HEPES pH 7.4, 0.15 M NaCl, 3 mM EDTA, 0.005% v/v tween 20. […] The running buffer for the kinetic experiments was 10 mM sodium phosphate, 130 mM sodium chloride, 0.05% tween 20, pH 7.1. The surfaces were regenerated after each cycle using two 30 s pulses of 10 mM glycine pH 1.5 at a flow rate of 30 μl/min. Sensogram data was double-referenced and then fitted to a 1:1 Langmuir model using Biacore T100 evaluation software v2.0.4, to determine the association rate constant (ka), the dissociation rate constant (kd), and the equilibrium dissociation constant (KD).

B1: 11A6 (antibody, human IgG1, kappa, V domains shown)
VH: EVQLVESGGNLVQPGRSLRLSCAASGFTFDDYAMHWVRQAPGKGLEWVSGISWNNNDIGYADSVKGRFIISRDNAKNSLYLQMNSLRPEDTALYYCVKGYYVILTGLDYWGQGTPVTVSS
VL: DIQMTQSPSSLSASVGDRVTITCRASQGISSWLAWYQQKPEKAPKSLIYAASSLQSGVPSRFSGSGSGTDFTLTISSLQPEDFATYYCQQYNSYPLTFGGGTKVEIKR
- Ymax, cAMP HTRF assay (100 nM 11F11 set to 100%) (human CD73 on cells [1]): 84%

B2: 10D2 (antibody, human IgG4, kappa, V domains shown)
VH: QVQLVESGGGVVQPGRSLRLSCAASGFTFSNYGLHWVRQAPGKGLEWVAVIRYDGSNKYYADSVKGRFTISRDNSKNTLYLQMSSLRAEDTAVYYCARGGSSWYPDGLDVWGQGTTVTVSS
VL: B1 VL
- Ymax, CD73 internalization (100 nM 11F11 set to 100%) (human CD73 on cells [2]): 29%

B3: 11F11 (antibody, human IgG2, kappa, V domains shown)
VH: B2 VH with A24T, L34M, R52L, A61P, S84N, G107S, L108F, V110I, T116M
VL: B1 VL
notes: IgG2; also called 11F11-2
- Kd (N-hCD73-his): 1.1 nM
- Ymax, cAMP HTRF assay (100 nM 11F11 set to 100%) (human CD73 on cells [1]): 76%
- Ymax, CD73 internalization (100 nM 11F11 set to 100%) (human CD73 on cells [2]): 98%

B4: 7A11 (antibody, human IgG1, kappa, V domains shown)
VH: EVQLVESGGGLVQTGRSLRLSCAASGFTFDDYAMHWVRQAPGKGLEWVSDISWNSDIIGYADSVKGRFTISRDNAKNSLYLQMNSLRAEDTALYYCAKDIYGSGSSFFDYWGQGILVTVSS
VL: B1 VL with G28Y, N92H, L96P, G100Q, K103R, V104L
- Ymax, cAMP HTRF assay (100 nM 11F11 set to 100%) (human CD73 on cells [1]): 45%
- Ymax, CD73 internalization (100 nM 11F11 set to 100%) (human CD73 on cells [2]): 50%

B5: 4C3 (antibody, human IgG1, kappa, V domains shown)
VH: B1 VH with N10G, N54K, N55S, N56G, D57S, I69T, P88A, P115L
VL: not shown
notes: IgG1za; also called 4C3-1
- Kd (N-hCD73-his): 100 to 200 nM
- Ymax, cAMP HTRF assay (100 nM 11F11 set to 100%) (human CD73 on cells [1]): 80%

B8: 5F8 (antibody, human IgG1, kappa, V domains shown)
VH: EVQLVESGGGLVQPGGSLRLSCAASGFTFSSYWMHWVRQAPGKGLVWVSRIISDGSSTGYADSVKGRFTISRDNAKNTLYLQMNSLRAEDTAVYYCAREFSSGWYFDYWGQGTLVTVSS
VL: AIQLTQSPSSLSASVGDRVTITCRASQGISSALAWYQQKPGKAPKLLIYDASSLESGVPSRFSGSGSGTDFTLTISSLQPEDFATYYCQQFSSYPRTFGQGTKVEIKR
- Ymax, cAMP HTRF assay (100 nM 11F11 set to 100%) (human CD73 on cells [1]): 80%

B9: CD73.4-IgG2-C219S (antibody)
heavy: QVQLVESGGGVVQPGRSLRLSCAASGFTFSNYGMHWVRQAPGKGLEWVAVILYDGSNKYYPDSVKGRFTISRDNSKNTLYLQMNSLRAEDTAVYYCARGGSSWYPDSFDIWGQGTMVTVSSASTKGPSVFPLAPCSRSTSESTAALGCLVKDYFPEPVTVSWNSGALTSGVHTFPAVLQSSGLYSLSSVVTVPSSNFGTQTYTCNVDHKPSNTKVDKTVERKSCVECPPCPAPPVAGPSVFLFPPKPKDTLMISRTPEVTCVVVDVSHEDPEVQFNWYVDGVEVHNAKTKPREEQFNSTFRVVSVLTVVHQDWLNGKEYKCKVSNKGLPAPIEKTISKTKGQPREPQVYTLPPSREEMTKNQVSLTCLVKGFYPSDIAVEWESNGQPENNYKTTPPMLDSDGSFFLYSKLTVDKSRWQQGNVFSCSVMHEALHNHYTQKSLSLSPG
light: not shown
notes: also called CD73.4-IgG2CS; CD73.4-IgG2.3; copies: 2 + 2
- Kd (N-hCD73-his): 1.1 nM

B13: 4D4 (antibody, human IgG2, kappa)
heavy: QVQLVESGGGVVQPGRSLRLSCAASGFTFSNYGMHWVRQAPGKGLEWVAVIWYDESNKYYADSVKGRFTISRDNSKNTLFLQMNSLRAEDTAVYYCARGYNSRWYPDAFDIWGQGTMVTVSSASTKGPSVFPLAPCSRSTSESTAALGCLVKDYFPEPVTVSWNSGALTSGVHTFPAVLQSSGLYSLSSVVTVPSSNFGTQTYTCNVDHKPSNTKVDKTVERKCCVECPPCPAPPVAGPSVFLFPPKPKDTLMISRTPEVTCVVVDVSHEDPEVQFNWYVDGVEVHNAKTKPREEQFNSTFRVVSVLTVVHQDWLNGKEYKCKVSNKGLPAPIEKTISKTKGQPREPQVYTLPPSREEMTKNQVSLTCLVKGFYPSDIAVEWESNGQPENNYKTTPPMLDSDGSFFLYSKLTVDKSRWQQGNVFSCSVMHEALHNHYTQKSLSLSPGK
light: not shown
notes: IgG2; also called 4D4-1
- Kd (N-hCD73-his): ~5 nM
- Ymax, CD73 internalization (100 nM 11F11 set to 100%) (human CD73 on cells [2]): 104%

The remaining lines, values ahead:

- Ymax, CD73 internalization (100 nM 11F11 set to 100%) (human CD73 on cells [2]): 51%
B6: 24H2 (antibody, human IgG4, kappa, V domains shown)
VH: B2 VH with L34M, R52W, S56G, Y80F, S84N, G107A, L108F, V110I, T116M
VL: B1 VL

- Kd (N-hCD73-his): ~5 nM
B7: CD73.11-IgG2-C219S (antibody)
heavy: QVQLVESGGGVVQPGRSLRLSCAASGFTFSNYGMHWVRQAPGKGLEWVAVIWYDESNKYYADSVKGRFTISRDNSKNTLFLQMNSLRAEDTAVYYCARGYNSRWYPDAFDIWGQGTMVTVSSASTKGPSVFPLAPCSRSTSESTAALGCLVKDYFPEPVTVSWNSGALTSGVHTFPAVLQSSGLYSLSSVVTVPSSNFGTQTYTCNVDHKPSNTKVDKTVERKSCVECPPCPAPPVAGPSVFLFPPKPKDTLMISRTPEVTCVVVDVSHEDPEVQFNWYVDGVEVHNAKTKPREEQFNSTFRVVSVLTVVHQDWLNGKEYKCKVSNKGLPAPIEKTISKTKGQPREPQVYTLPPSREEMTKNQVSLTCLVKGFYPSDIAVEWESNGQPENNYKTTPPMLDSDGSFFLYSKLTVDKSRWQQGNVFSCSVMHEALHNHYTQKSLSLSPG
light: not shown
notes: also called CD73.11-IgG2CS

- Kd (N-hCD73-his): ~5 nM
- Ymax, CD73 internalization (100 nM 11F11 set to 100%) (human CD73 on cells [2]): 99%
B10: CD73.10-IgG2-C219S (antibody)
heavy: B9 heavy with L52W, G55E
light: not shown
notes: also called CD73.10-IgG2CS; CD73.10-IgG2S

- Ymax, CD73 internalization (100 nM 11F11 set to 100%) (human CD73 on cells [2]): 97%
B11: CD73.4-IgG2-C219S-IgG1.1f (antibody)
heavy: B9 heavy with Q274K, F296Y, F300Y, V309L, G327A, A330S, P331S, T339A, M397V
light: not shown
modifications: N-terminal Gln 94% pyro-Q; 97% of heavy chains lack the C-terminal Lys

- Ymax, CD73 internalization (100 nM 11F11 set to 100%) (human CD73 on cells [2]): 99%
B12: CD73.10-IgG2-C219S-IgG1.1f (antibody)
heavy: QVQLVESGGGVVQPGRSLRLSCAASGFTFSNYGMHWVRQAPGKGLEWVAVIWYDESNKYYPDSVKGRFTISRDNSKNTLYLQMNSLRAEDTAVYYCARGGSSWYPDSFDIWGQGTMVTVSSASTKGPSVFPLAPCSRSTSESTAALGCLVKDYFPEPVTVSWNSGALTSGVHTFPAVLQSSGLYSLSSVVTVPSSNFGTQTYTCNVDHKPSNTKVDKTVERKSCVECPPCPAPPVAGPSVFLFPPKPKDTLMISRTPEVTCVVVDVSHEDPEVKFNWYVDGVEVHNAKTKPREEQYNSTYRVVSVLTVLHQDWLNGKEYKCKVSNKALPSSIEKTISKAKGQPREPQVYTLPPSREEMTKNQVSLTCLVKGFYPSDIAVEWESNGQPENNYKTTPPVLDSDGSFFLYSKLTVDKSRWQQGNVFSCSVMHEALHNHYTQKSLSLSPG
light: not shown
